PMC4101993 (Nature structural & molecular biology, 2014)

Biological target: the molecule itself
Experiment: SEC-MALS

B1: Purified EttA (gel filtration with static light scattering) (natural protein, E. coli)
chain: MAQFVYTMHRVGKVVPPKRHILKNISLSFFPGAKIGVLGLNGAGKSTLLRIMAGIDKDIEGEARPQPDIKIGYLPQEPQLNPEHTVRESIEEAVSEVVNALKRLDEVYALYADPDADFDKLAAEQGRLEEIIQAHDGHNLNVQLERAADALRLPDWDAKIANLSGGERRRVALCRLLLEKPDMLLLDEPTNHLDAESVAWLERFLHDFEGTVVAITHDRYFLDNVAGWILELDRGEGIPWEGNYSSWLEQKDQRLAQEASQEAARRKSIEKELEWVRQGTKGRQSKGKARLARFEELNSTEYQKRNETNELFIPPGPRLGDKVLEVSNLRKSYGDRLLIDDLSFSIPKGAIVGIIGPNGAGKSTLFRMISGQEQPDSGTITLGETVKLASVDQFRDSMDNSKTVWEEVSGGLDIMKIGNTEMPSRAYVGRFNFKGVDQGKRVGELSGGERGRLHLAKLLQVGGNMLLLDEPTNDLDIETLRALENALLEFPGCAMVISHDRWFLDRIATHILDYQDEGKVEFFEGNFTEYEEYKKRTLGADALEPKRIKYKRIAK
How did the “stoichiometry N” value turn out when B1 was run?
Its value is 2.
